Stoichiometry N data for 1 substance are collected here from article doi:10.1101/2020.03.05.978023.

Assay [1] has as its target Human DND1 (Dead end protein homolog 1) RRM2 domain (139-217) (human). Description: SEC. (In general: SEC sorts molecules by how far they enter the pores of the column.)
Assay [2] shares this target. The assay can be described thus: crystal structure.

Take “Human DND1 (Dead end protein homolog 1) RRM2 domain (139-217) (domain or fragment)”: the stoichiometry N in assay [1] and in assay [2] was 2 each time.
